In patent US20060252116A1, “Icam-4 binding sites” (priority 2002, published 2006):
Positions count from the first letter of the chain named. Names and notes keep the numbering of the source.

System: HT1080 cells (αv integrin)
Assay: Adhesion of HT1080 cells to mutant human ICAM-4Fc
Type: cell-based
Details: FIG. 4; single residue mutants of human ICAM-4Fc, titrated coating concentration
Experimental: Cell adhesion assays were performed as described in Spring et al. 2001 (supra). Immulon4 96 well plates (Dynex Technologies, Billingshurst, United Kingdom) were coated with 1 μg/well goat-antihuman-Fc (Sigma, Poole, United Kingdom) for 24 hours at 4° C., washed three times with PBS and coated with an Fc fusion ICAM-4 protein for 18 hours at 4° C. before blocking with 0.4% BSA PBS for 2 hours at 22° C. Cells were labelled with 10 μg/ml 2′,7′-bis-(2-carboxyethyl)-5-(and-6-) carboxyfluorescein acetoxymethyl ester in assay buffer (IMEM, 2 mM EGTA, 10 μg/ml human ivIgG) for 15 minutes at 37° C. HT1080 cells were activated with 80 μM phorbol myristate acetate prior to both cells being washed with assay buffer containing 2 mM Mn^2+. Cells, at 5×10^4 cells per well, were added to the ICAM-4Fc-coated plates for 30 minutes at 37° C., prior to being given repeated washes in assay buffer and read on a fluorescence microplate reader (excitation 485 nm, emission 530 nm). The percentage of bound cells was calculated after each wash. Peptide inhibition was performed by incubating the cells with 500 μM peptide at 0° C. for 15 minutes ahead of their addition, still in the presence of 500 μM peptide to the ICAM-4Fc coated plates. In peptide inhibition studies the appropriate ICAM-4Fc coating concentration for each cell line was pre-determined by titration of ICAM-4Fc and the lowest concentration at which maximal binding was achieved was used to coat the plates
Point mutations were inserted into ICAM-4 in pIg vector (see Simmons D L, 1993, Cloning cell surface molecules by transient expression in mammalian cells, In: Hartley D A, ed. Cellular interactions in development. New York, N.Y.:IRL press, 93-127) by PCR amplification over two stages. Oligonucleotides (see “Mutagenesis primers” below) containing mismatched bases, together with 5′-[…] (SEQ ID NO: 14) and 3′-[…] (SEQ ID NO: 15) primers were used to generate two overlapping products. Following gel purification the two overlapping PCR products were annealed together before final amplification using the 5′ and 3′ primers. The final PCR product was restricted and ligated into pIg vector. All mutant clones were verified by sequence analysis. Mutant ICAM-4Fc proteins were expressed in COS-7 cells as described in Simmons D L (1993, supra), and purified from culture supernatant on protein A-Sepharose.

B1: F18A mutant: human ICAM-4Fc fusion protein with point mutation F18A (protein)
chain: AQSPKGSPLAPSGTSVPAWVRMSPEFVAVQPGKSVQLNCSNSCPQPQNSSLRTPLRQGKTLRGPGWVSYQLLDVRAWSSLAHCLVTCAGKTRWATSRITAYKPPHSVILEPPVLKGRKYTLRCHVTQVFPVGYLVVTLRHGSRVIYSESLERFTGLDLANVTLTYEFAAGPRDFWQPVICHARLNLDGLVVRNSSAPITLMLAWSPAPTA
modifications: left off: a dimerising Fc or GST
notes: human ICAM-4Fc fusion protein with point mutation F18A
  adhesion of HT1080 cells to mutant ICAM-4Fc compared with wild-type: decrease in binding

B2: W19A mutant: human ICAM-4Fc fusion protein with point mutation W19A (protein)
chain: B1 chain with A18F, W19A
modifications: left off: a dimerising Fc or GST
notes: human ICAM-4Fc fusion protein with point mutation W19A
  adhesion of HT1080 cells to mutant ICAM-4Fc compared with wild-type: decrease in binding

B3: V20T mutant: human ICAM-4Fc fusion protein with point mutation V20T (protein)
chain: B1 chain with A18F, V20T
modifications: left off: a dimerising Fc or GST
notes: human ICAM-4Fc fusion protein with point mutation V20T
  adhesion of HT1080 cells to mutant ICAM-4Fc compared with wild-type: decrease in binding

B4: R92E mutant: human ICAM-4Fc fusion protein with point mutation R92E (protein)
chain: B1 chain with A18F, R92E
modifications: left off: a dimerising Fc or GST
notes: human ICAM-4Fc fusion protein with point mutation R92E
  adhesion of HT1080 cells to mutant ICAM-4Fc compared with wild-type: decrease in binding

B5: A94L mutant: human ICAM-4Fc fusion protein with point mutation A94L (protein)
chain: B1 chain with A18F, A94L
modifications: left off: a dimerising Fc or GST
notes: human ICAM-4Fc fusion protein with point mutation A94L
  adhesion of HT1080 cells to mutant ICAM-4Fc compared with wild-type: decrease in binding

B6: T95V mutant: human ICAM-4Fc fusion protein with point mutation T95V (protein)
chain: B1 chain with A18F, T95V
modifications: left off: a dimerising Fc or GST
notes: human ICAM-4Fc fusion protein with point mutation T95V
  adhesion of HT1080 cells to mutant ICAM-4Fc compared with wild-type: decrease in binding

B7: S96A mutant: human ICAM-4Fc fusion protein with point mutation S96A (protein)
chain: B1 chain with A18F, S96A
modifications: left off: a dimerising Fc or GST
notes: human ICAM-4Fc fusion protein with point mutation S96A
  adhesion of HT1080 cells to mutant ICAM-4Fc compared with wild-type: decrease in binding

B8: R97E mutant: human ICAM-4Fc fusion protein with point mutation R97E (protein)
chain: B1 chain with A18F, R97E
modifications: left off: a dimerising Fc or GST
notes: human ICAM-4Fc fusion protein with point mutation R97E
  adhesion of HT1080 cells to mutant ICAM-4Fc compared with wild-type: decrease in binding

B9: W66A mutant: human ICAM-4Fc fusion protein with point mutation W66A (protein)
chain: B1 chain with A18F, W66A
modifications: left off: a dimerising Fc or GST
notes: human ICAM-4Fc fusion protein with point mutation W66A
  adhesion of HT1080 cells to mutant ICAM-4Fc compared with wild-type: decrease the level of adhesion

B10: K118E mutant: human ICAM-4Fc fusion protein with point mutation K118E (protein)
chain: B1 chain with A18F, K118E
modifications: left off: a dimerising Fc or GST
notes: human ICAM-4Fc fusion protein with point mutation K118E
  adhesion of HT1080 cells to mutant ICAM-4Fc compared with wild-type: decrease the level of adhesion

B11: N160A mutant: human ICAM-4Fc fusion protein with point mutation N160A (protein)
chain: B1 chain with A18F, N160A
modifications: left off: a dimerising Fc or GST
notes: human ICAM-4Fc fusion protein with point mutation N160A
  adhesion of HT1080 cells to mutant ICAM-4Fc compared with wild-type: elevated level of adhesion

B12: T162V mutant: human ICAM-4Fc fusion protein with point mutation T162V (protein)
chain: B1 chain with A18F, T162V
modifications: left off: a dimerising Fc or GST
notes: human ICAM-4Fc fusion protein with point mutation T162V
  adhesion of HT1080 cells to mutant ICAM-4Fc compared with wild-type: elevated level of adhesion
